Test results as given in US20170275650A1, “ENDOSOMAL ESCAPE DOMAINS FOR […] OF MACR[…] CELLS” (priority 2014, published 2017).

Key:
[1] = system: GFPβ1-10 expressing MCF7c#G7 cells; settings: increasing amounts of peptide (FIG. 6)
Protocol: (§3) Cell morphology and cell viability. Cell morphology was determined by FACS analysis of FSC and SSC. Gates were set manually for viable cells using untreated control cells as reference and the fraction of viable cells compared to non-viable cells was determined for each sample. Data are presented as the relative difference compared to non-treated control cells. Viable cells per sample were determined by measuring number of viable cells that were analyzed per second by FACS. Gates for viable cells were set manually using untreated control cells as reference. Data are presented as the relative difference compared to untreated control cells.

[2] = system: GFPβ1-10 expressing MDA-MB-231c#G3 cells; settings: increasing amounts of peptide (FIG. 6)
Protocol: as §3

[3] = system: GFPβ1-10 expressing H1299c#G3 cells; test: split GFP fluorescence complementation transduction assay (FACS); format: cell-based, human; settings: dose-dependent comparison, up to 60 μM, FACS (FIG. 4, 5)
Protocol: (§1) Peptide transduction. All transduction experiments were performed in 48-well plates. An optimized protocol was established. First, 15,000 or 20,000 cells were plated in each well. Next day, the indicated peptides were pipetted into eppendorf tubes. Transduction buffer (60% OptiMEM and 40% PBS) was added to peptide (100 μl total volume), directly mixed by pipetting up and down five times and then immediately transferred to cells. All pipetting steps were done in a laminar flow cell culture hood and standardized to 15 min for each plate before transferring the plate of cells to a 37° C. CO2 incubator for 1.5 h before addition of 500 μl DMEM supplemented with 10% FBS and another incubation round for 3.5 h in the 37° C. CO2 incubator (alternatively cells were incubated 2 h with peptides and another 4 h with DMEM, 10% FBS (FIG. 8b, c, d). For the transduction time-course, cells were incubated with peptides in transduction buffer until indicated time-points. All cells were trypzinized and collected in 250 μl OptiMEM without phenol red and analyzed by FACS (GFP, FSC/SSC). 4000 viable cells were analyzed per sample. Data is presented as fold change in fluorescence compared to non-treated cells.
To address these problems, the disclosure provides a self-assembling, bimolecular or split GFP fluorescence complementation system that was originally designed to tag and monitor proteins. GFP is composed of 11 β-strands that form a barrel structure allowing for peptidyl backbone cyclization and formation of a fluorescent chromophore. […] Importantly, co-incubation of GFPβ1-10 with the GFPβ11 peptide in trans efficiently reconstitutes GFP fluorescent chromophore bond and GFP fluorescence (FIG. 1a). To study PTD-mediated delivery, cell lines were generated that constitutively expressed the non-fluorescent GFPβ1-10 fragment and treated them in trans with a GFPβ11-PTD/CPP peptide to restore GFP fluorescence.
Cell clones of various human cell lines constitutively expressing the non-fluorescent large GFPβ1-10 fragment, including H1299 non-small cell lung carcinoma, HaCaT immortalized keratinocytes, and MDA-MB-231 and MCF7 breast carcinomas, and assayed for reconstituted intracellular GFP fluorescence after treatment with transducible GFPβ11-PTD/CPP peptides by FACS (FIG. 1a). Starting with human H1299 cells, known to be a good model for PTD/CPP-mediated uptake, two GFPβ1-10 expressing clones were generated (c#G3 and c#G4) (FIG. 8a). GFPβ1-10 expressing H1299c#G3 cells were treated for 1.5 h with increasing amounts of transducible GFPβ11-TAT peptide (0-60 μM), followed by an additional 3.5 h in DMEM supplemented with 10% FBS. At 5 h post-addition of GFPβ11-TAT peptide, cells were trypsinized and live cell assayed by FACS.

[4] = system: GFPβ1-10 expressing HaCatc#G7 cells; settings: increasing amounts of peptide (FIG. 6)
Protocol: as §3

[5] = system: GFPβ1-10 expressing HaCatc#G7 cells; test: split GFP fluorescence complementation transduction assay (FACS); format: cell-based, human; settings: increasing amounts of peptide (FIG. 6)
Protocol: (§2) Cell culture, transfections and immunoblots. H1299, MCF7, MDA-MB-231 and HaCat cells were maintained in DMEM supplemented with 10% FBS, 100 U/ml penicillin, and 100 U/ml streptomycin. H1299c#G3, H1299c#G4, MCF7c#G7, MDA-MB-231c#G3 and HaCaTc#G7 cells were generated by transfecting cells with pCMV-mGFPβ1-10 and subsequently grown under hygromycin selection. Hygromycin resistant cells were then treated with GFPβ11-TAT and directly after, individual, transiently fluorescent clonal cells were isolated by FACS sorting. Clones were expanded and tested for stable GFPβ1-10 expression. H1299c#G3, H1299c#G4, MCF7c#G7, MDA-MB-231c#G3 and HaCaTc#G7 cells were maintained in DMEM supplemented with 10% FBS, 100 U/ml penicillin, 100 U/ml streptomycin and 80 or 100 ug/ml hygromycin. Transient transfections of siRNA or plasmid DNA were performed using Lipofectamine 2000 according to standard protocol. Immunblots were performed using 10% SDS-PAGE, semi-dry transfer (BioRad) and developed on ChemiDoc Imager (BioRad).
as §1, with “CO2 incubator for 1.5 h before addition of 500 μl DMEM supplemented with 10% FBS and another incubation round for 3.5 h in the 37° C.” left out

[6] = system: GFPβ1-10 expressing MCF7c#G7 cells; test: as above; format: cell-based, human; settings: increasing amounts of peptide (FIG. 6)
Protocol: as §2
as §1, with “CO2 incubator for 1.5 h before addition of 500 μl DMEM supplemented with 10% FBS and another incubation round for 3.5 h in the 37° C.” left out

[7] = system: GFPβ1-10 expressing MDA-MB-231c#G3 cells; test: as above; format: cell-based, human; settings: increasing amounts of peptide (FIG. 6)
Protocol: as §2
as §1, with “CO2 incubator for 1.5 h before addition of 500 μl DMEM supplemented with 10% FBS and another incubation round for 3.5 h in the 37° C.” left out

[8] = system: GFPβ1-10 expressing H1299c#G3 cells; format: cell-based, human; settings: FACS FSC/SSC and viable cell number relative to untreated control cells
Text: Cell morphology and cell viability.

RDHMVLHEYVNAAGIT-GGSGGC-(S-S)-CGG-RKKRRQRRR-(PEG)6-GFWFG (disulfide bond, (PEG)6-GFWFG) [GFPβ11-(S-S)-TAT-P6-GFWFG]
cytotoxicity [1]: Low to no cytotoxicity | cytotoxicity [2]: Low to no cytotoxicity | GFP fluorescence / transduction compared to parental GFPβ11-(S-S)-TAT [3]: four-fold increase | cytotoxicity [4]: Low to no cytotoxicity | GFP complementation compared to parental GFPβ11-(S-S)-TAT control peptide [5]: significantly enhanced GFP complementation | GFP complementation compared to parental GFPβ11-(S-S)-TAT control peptide [6]: significantly enhanced GFP complementation | GFP complementation compared to parental GFPβ11-(S-S)-TAT control peptide [7]: significantly enhanced GFP complementation | cytotoxicity / morphological changes [8]: absence of any detectable cytotoxicity
